In patent US7981997B2, “Growth factor which acts through ErbB-4 RTK” (Yeda Research And Development Co., priority 2000, dated 2011):

Legend:
surface-expressed ErbB-4 = target: T1, surface-expressed ErbB-4 (Homo sapiens, UniProt Q15303); assay: Covalent crosslinking to CHO cells transfected with ErbB-4; format: binding; details: expression of ErbB-4 alone
T1 construct: expressed in transfected cells; host or cells: CHO (Chinese Hamster Ovary) cells
Protocol: CHO cells were transfected with vectors directing expression of the indicated ErbB proteins or their combinations. Two days later cell monolayers were incubated with either ^125I-NRG-1β or ^125I-NRG-4 (EGF-like domains, each at 100 ng/ml). Following 2 hours at 4° C., the covalent crosslinking reagent bis(sulfosuccinimdyl)-suberate (BS^3) was added (1 mM final concentration) and cell extracts prepared after an additional 45 minutes of incubation. The indicated ErbB proteins were then immunoprecipitated with mouse monoclonal antibodies, and the complexes resolved by gel electrophoresis and autoradiography. Arrows mark the locations of monomeric (M) and dimeric (D) receptor complexes.
Growth factors were labeled with Iodogen (Pierce) as described (Karunagaran et al., 1995). Chemical crosslinking to Chinese Hamster Ovary (CHO) cells engineered to express different ErbB combinations have been performed essentially as described (Tzahar et al., 1996). Briefly, radiolabeled ligands (at 100 ng/ml) were incubated for 2 hours with cell monolayers at 4 C. […] Non-specific binding was determined in the presence of a 100-fold molar excess of the unlabeled ligani. Cells were then washed, lysed in a solution containing 0.1 M NaOH and 0.1% SDS, and radioactivity determined by use of a gamma counter. […]

[1] = tested on: 180-kDa ErbB receptors and MAP-kinase (Erk-1 and Erk-2) in D24 cells; assay: Tyrosine phosphorylation and MAPK activation, immunoblotting; format: cell-based; details: 100 ng/ml, five minutes
Protocol: (§1) Derivatives of 32D cells expressing ErbB-4, either alone (D4 cells) or in combination with ErbB-2 (D24 cells) were incubated for 5 minutes at 37° C. with either NRG-4 or NRG-1β (each at 100 ng/ml). Whole cell extracts were then prepared, resolved by gel electrophoresis, and transferred to a nitrocellulose filter. The upper portion of the filter was immunoblotted with antibodies to phosphotyrosine (P-Tyr, the 150-200 kDa region is shown) or an antibody directed at the activated doubly phosphorylated form of the MAPK (Erk1 and Erk2, the 40-50 kDa region is shown). Antibodies were incubated with a secondary reagent coupled to horseradish peroxidase, allowing subsequent detection by chemiluminescence.
(§2) For receptor activation studies, derivatives of the 32D cell line were resuspended in phosphate-buffered solution (PBS) and incubated at 22 C for 15 minutes before adding growth factors and incubating for five minutes at 37 C. Cells were then pelleted and lysed in ice cold solubilization buffer [50 mM Tris-HCl pH 7.5, 150 mM NaCl, 1% Nonidet-P40, 0.5% Na-deoxycholate, 0.1% sodium dodecyl sulfate (SDS), 1.5 mM EDTA, 1.5 mM MgCl2, 2 mM Na-orthovanadate, 1 mM phenylmethylsulfonyl fluoride (PMSF), 10 µg/ml aprotinin and 10 µg/ml leupeptin] and left on ice for 15 minutes. The whole cell extract was then cleared by centrifugation (12,000×g for 10 minutes at 4 C), immediately boiled in reducing gel sample buffer, and resolved by 10% SDS PAGE before being transferred onto nitrocellulose. Filters were blocked in TBST buffer (0.02 M Tris-HCl pH 7.5, 0.15 M NaCl, 0.05% Tween-20) containing 1% milk for 40 minutes at 22 C, blotted with primary antibodies in TBST overnight at 4 C, followed by conjugation with a secondary antibody linked to horseradish peroxidase and subsequent detection by chemiluminescence (Amersham Corp.).
(§3) Evidently, NRG-4 binds to ErbB-4 and mediates cell proliferation through activation of this receptor. Because other ErbB ligands stimulate cell growth via tyrosine phosphorylation of their respective receptors and activation of the intervening mitogen-activated protein kinase (MAPK) cascade, these two signaling steps were tested in NRG-4-responsive myeloid cells expressing ErbB-4 (D4 and D24 cell lines). Cells were stimulated with 100 ng/ml of activating ligand for five minutes, followed by lysis and analysis by immunoblotting.

[2] = tested on: 180-kDa ErbB receptors and MAP-kinase (Erk-1 and Erk-2) in D4 cells; assay: as above; format: cell-based; details: 100 ng/ml, five minutes
Protocol: as §1, §2, §3

ErbB-4 = target: T2, ErbB-4 (Homo sapiens, UniProt Q15303); assay: Ligand displacement analysis of radiolabeled NRG-1β on ErbB-4-expressing CHO cells; format: binding; details: displacement of surface-bound radiolabeled NRG-1β
T2 construct: expressed in transfected cells; host or cells: CHO (Chinese Hamster Ovary) cells
T2 sequence (Q15303 26-1308, species assumed): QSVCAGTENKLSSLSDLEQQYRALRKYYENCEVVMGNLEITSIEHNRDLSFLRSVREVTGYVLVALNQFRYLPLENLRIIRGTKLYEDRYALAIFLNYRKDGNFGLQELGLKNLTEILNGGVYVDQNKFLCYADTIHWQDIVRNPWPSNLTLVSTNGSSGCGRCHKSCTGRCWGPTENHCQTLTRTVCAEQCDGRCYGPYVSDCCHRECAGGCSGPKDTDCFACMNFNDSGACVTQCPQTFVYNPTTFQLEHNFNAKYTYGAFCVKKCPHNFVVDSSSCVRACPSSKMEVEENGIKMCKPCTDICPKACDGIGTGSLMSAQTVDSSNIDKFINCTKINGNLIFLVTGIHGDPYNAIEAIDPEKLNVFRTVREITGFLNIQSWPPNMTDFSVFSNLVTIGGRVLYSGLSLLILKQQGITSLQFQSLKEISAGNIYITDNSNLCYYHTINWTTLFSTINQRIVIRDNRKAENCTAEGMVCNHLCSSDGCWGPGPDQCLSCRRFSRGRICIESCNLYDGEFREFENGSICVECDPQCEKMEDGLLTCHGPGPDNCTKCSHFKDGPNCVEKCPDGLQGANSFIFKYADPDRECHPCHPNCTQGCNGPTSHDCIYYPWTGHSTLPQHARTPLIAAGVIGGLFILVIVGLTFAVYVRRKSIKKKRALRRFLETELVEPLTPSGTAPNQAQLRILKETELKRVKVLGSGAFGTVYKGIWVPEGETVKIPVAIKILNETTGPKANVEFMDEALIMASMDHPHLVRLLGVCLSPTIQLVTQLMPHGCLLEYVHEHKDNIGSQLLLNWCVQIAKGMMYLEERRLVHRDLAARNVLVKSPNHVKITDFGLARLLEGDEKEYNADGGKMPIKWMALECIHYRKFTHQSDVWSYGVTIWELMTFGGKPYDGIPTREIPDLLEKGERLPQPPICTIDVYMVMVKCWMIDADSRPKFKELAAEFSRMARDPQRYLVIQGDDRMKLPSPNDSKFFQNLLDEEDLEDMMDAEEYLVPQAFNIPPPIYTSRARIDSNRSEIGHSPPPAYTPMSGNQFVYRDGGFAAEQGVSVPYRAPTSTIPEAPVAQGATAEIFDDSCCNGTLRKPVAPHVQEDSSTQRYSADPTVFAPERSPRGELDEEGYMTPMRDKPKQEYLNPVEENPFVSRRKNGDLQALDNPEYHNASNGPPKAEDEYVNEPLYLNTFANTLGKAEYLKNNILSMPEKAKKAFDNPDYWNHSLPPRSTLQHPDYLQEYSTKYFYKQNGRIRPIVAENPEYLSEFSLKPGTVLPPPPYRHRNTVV
Protocol: Displacement analyses of radiolabeled NRG-1β were performed with CHO cells expressing ErbB-4. Cell monolayers (2×10^5 cells) were incubated for 2 hours at 4° C. with a radiolabeled NRG-1 (5 ng/ml) in the presence of increasing concentrations of an unlabeled NRG-4 (closed triangles), or NRG-1β (closed squares). Each data point represents the mean and range (bars) of two determinations.
Growth factors were labeled with Iodogen (Pierce) as described (Karunagaran et al., 1995). Chemical crosslinking to Chinese Hamster Ovary (CHO) cells engineered to express different ErbB combinations have been performed essentially as described (Tzahar et al., 1996). Briefly, radiolabeled ligands (at 100 ng/ml) were incubated for 2 hours with cell monolayers at 4 C. The chemical crosslinking agent BS^3 (1 mM) was then added and the cells were further incubated for 45 minutes at 22 C. […] Non-specific binding was determined in the presence of a 100-fold molar excess of the unlabeled ligani. Cells were then washed, lysed in a solution containing 0.1 M NaOH and 0.1% SDS, and radioactivity determined by use of a gamma counter.
Taken together, the biological effects of NRG-4 and its complex formation with ErbB-4 implied not only specificity of recognition, but also weaker interaction relative to NRG-1. To quantify the interaction, a ligand displacement analysis on ErbB-4-expressing CHO cells was undertaken. […]

T1 sequence (Q15303 26-1308, species assumed): as above

B1: NRG-4: synthetic refolded mouse EGF-like domain of NRG-4 (residues 4 to 50, SEQ ID NO:2) (peptide, listed as Mus musculus)
chain: MPTDHEQPCGPRHRSFCLNGGICYVIPTIPSPFCRCIENYTGARCEEVFLPSSSIPSESNLSAAFVVLAVLLTLTIAALCFLCRKGHLQRASSVQCEISLVETNNTRTRHSHREH
covalent crosslinking signal compared with radioactive NRG-1 (surface-expressed ErbB-4): weaker than that observed with a radioactive NRG-1
complex formation with ErbB-4 on CHO cells (surface-expressed ErbB-4; 125I-ligand 100 ng/ml): ability to form complexes
activation of MAP-kinase (Erk-1 and Erk-2), D24 cells [1]: accompanying activation of MAP-kinase
phosphorylation of the 180-kDa ErbB receptors, D24 cells [1]: stimulated phosphorylation
activation of MAP-kinase (Erk-1 and Erk-2), D4 cells [2]: accompanying activation of MAP-kinase
phosphorylation of the 180-kDa ErbB receptors, D4 cells [2]: stimulated phosphorylation
lower binding affinity to ErbB-4 compared with unlabeled NRG-1 (ErbB-4): approximately 8 fold
